# Source: patent US20060239990A1, “Protein Arginine N-Methyltransferase 2 (PRMT-2)” (priority 2003, published 2006)
# B1: PRMT2: human PRMT-2 polypeptide, SEQ ID NO:2, expressed from pVR1012 vector with HA-tag (protein, listed as Homo sapiens)
# chain: MATSGDCPRSESQGEEPAECSEAGLLQEGVQPEEFVAIADYAATDETQLSFLRGEKILILRQTTADWWWGERAGCCGYIPANHVGKHVDEYDPEDTWQDEEYFGSYGTLKLHLEMLADQPRTTKYHSVILQNKESLTDKVILDVGCGTGIISLFCAHYARPRAVYAVEASEMAQHTGQLVLQNGFADIITVYQQKVEDVVLPEKVDVLVSEWMGTCLLFEFMIESILYARDAWLKEDGVIWPTMAALHLVPCSADKDYRSKVLFWDNAYEFNLSALKSLAVKEFFSKPKYNHILKPEDCLSEPCTILQLDMRTVQISDLETLRGELRFDIRKAGTLHGFTAWFSVHFQSLQEGQPPQVLSTGPFHPTTHWKQTLFMMDDPVPVHTGDVVTGSVVLQRNPVWRRHMSVALSWAVTSRQDPTSQKVGEKVFPIWR
# modifications: HA tag
# Tested on: STAT3
# Test: STAT3 arginine methylation in transfected HEK293 cells
# Format: cell-based
# Details: 24 hr after transfection, α-metR immunoblot
# Method: Vascular smooth muscle cells (VSMC) were prepared from the thoracic aorta of 12-week-old-male wild-type and PRMT-2^−/− mice by the explant method. Mouse embryo fibroblasts (MEFs) were prepared from 13.5-day wild-type and PRMT-2^−/− embryos. VSMCs and MEFs were cultured in Dulbecco's modified Eagle's medium (DMEM) containing 10% fetal calf serum (FCS) at 37° C. in a humidified atmosphere of 95% air-5% CO2. The integrity of PRMT-2 expression in the established VSMCs and MEFs lines was confirmed by Western and immunofluorescence analysis (data not shown). Quiescent VSMC (3-5th passages) that had been serum-starved for 48 hr were used in the following experiments. HEK293 cells were also grown in DMEM plus 10% FCS and were transiently transfected with FuGENE6 transfection reagent (Roche Applied Science, Indianapolis, Ind.) according to the manufacture's protocol. For each transfection, 2 μg of expression construct for mouse PRMT-2 and 8 μg for mouse STAT3 were used. After 24-48 hr of transfection, cells were used for the following experiments.
# Immunoprecipitation of STAT3 was performed as follows. […]
molecule,measurement,value
B1,Stat3 methylation,endogenous methylated STAT3 was detected
